Laboratory results: article PMC8617505

Tested on: CC1(C)S[C@@H]2[C@H](NC(=O)Cc3ccccc3)C(=O)N2[C@H]1C(=O)O
Assay: purified protein

Substance	Km	kcat/Km
(Mycobacterium tuberculosis H37Rv)	72.9 ± 0.8 µM	640000 ± 10000 M⁻¹ s⁻¹
(Escherichia coli)	27 ± 4 µM	9e+06 ± 2e+06 M⁻¹ s⁻¹
